The values that follow come from patent US6949522B2, “β-2′- or 3′-halonucleosides” (Pharmasset, Inc., priority 2001, dated 2005).

Substrate in the data set: Nc1ncnc2c1ncn2[C@@H]1O[C@H](CO)[C@@H](O)[C@H]1O
As to the kind of experiment: purified protein, by the assay type. The note with it: other: 25° C., phosphate buffer pH 7.4, substrate of ADA.

Procedure: Assays were performed at 25° C. in phosphate buffer solution (pH 7.4) with substrate concentrations in the range of 15-100 μM and with 0.15 unit of adenosine deaminase (EC.3.5.4.4. from calf intestinal mucosa). The assays were monitored with a UV spectrometer at 265 nm. […] The concentration (ct) of each substrate at a certain time (t) was calculated from the absorbance (At) at that time (t), where it was assumed that the total change of absorbance (A0−A∞) was directly related to the disappearance of the substrate.^35 Initial hydrolysis rates for each substrate concentration were measured manually through graphical curve fitting of the concentration versus time data for reaction of each substrate. From Lineweaver-Burke plot of these initial rates, Vmax (maximum velocity) and KM (Michaelis constant) were obtained for each substrate and kcat was also calculated with 0.15 unit of the enzyme (M.W. 33,000) in 2 mL of buffer solution.

B1: adenosine deaminase (EC.3.5.4.4. from calf intestinal mucosa) (Bos taurus) (protein)
chain: MAQTPAFNKPKVELHVHLDGAIKPETILYYGRKRGIALPADTPEELQNIIGMDKPLSLPEFLAKFDYYMPAIAGCREAVKRIAYEFVEMKAKDGVVYVEVRYSPHLLANSKVEPIPWNQAEGDLTPDEVVSLVNQGLQEGERDFGVKVRSILCCMRHQPSWSSEVVELCKKYREQTVVAIDLAGDETIEGSSLFPGHVKAYAEAVKSGVHRTVHAGEVGSANVVKEAVDTLKTERLGHGYHTLEDATLYNRLRQENMHFEVCPWSSYLTGAWKPDTEHPVVRFKNDQVNYSLNTDDPLIFKSTLDTDYQMTKNEMGFTEEEFKRLNINAAKSSFLPEDEKKELLDLLYKAYGMPSPASAEQCL
Consider B1, for which the Km worked out at 24.5 µM, the kcat was 76.4 s⁻¹ and the kcat/Km stood at 3.1e+06 M⁻¹ s⁻¹.

For orientation: Km means the substrate concentration at which the rate is half of its maximum. For orientation: kcat means the number of substrate molecules converted per active site and unit of time at saturation. Usually kcat/Km stands for the turnover number divided by the Michaelis constant.
